Test results published in patent US20200024330A1.

How the values were obtained:
Experiment in all cases: cell-based or functional assay
[1] = molecular target: HIV-1 envelope glycoprotein (Env) of isolate APV_6, on pseudovirus (HIV-1)
[2] = molecular target: HIV-1 Env of isolate MGRM-F1-018 (clade F), on pseudovirus (HIV-1)
[3] = molecular target: HIV-1 envelope glycoprotein (Env) of isolate MGRM-Chronic-B-008, on pseudovirus (HIV-1)
[4] = molecular target: HIV-1 envelope glycoprotein (Env) of isolate MGRM-Chronic-B-002, on pseudovirus (HIV-1)
[5] = molecular target: HIV-1 envelope glycoprotein (Env) of isolate MGRM-Chronic-B-017, on pseudovirus (HIV-1)
[6] = molecular target: HIV-1 Env of isolate 92RW026 (HIV-1)
[7] = molecular target: HIV-1 envelope glycoprotein (Env) of isolate MGRM-Chronic-B-018, on pseudovirus (HIV-1)
[8] = molecular target: HIV-1 Env of isolate MGRM-Chronic-B-024 (subtype B) (HIV-1)
[9] = molecular target: HIV-1 Env of isolate MGRM-C-026 (subtype C), on pseudovirus (HIV-1)
[10] = molecular target: HIV-1 Env of isolate 92RW024 (HIV-1)
[11] = molecular target: HIV-1 envelope glycoprotein (Env) of isolate 93TH305, on pseudovirus (HIV-1)
[12] = molecular target: HIV-1 94UG103 Env (pseudovirus) (HIV-1)
[13] = molecular target: HIV-1 MGRM-D-018 Env (pseudovirus) (HIV-1)
[14] = molecular target: HIV-1 APV17 Env (pseudovirus) (HIV-1)
[15] = molecular target: HIV-1 93UG077 Env (pseudovirus) (HIV-1)
[16] = molecular target: aMLV envelope on pseudovirus (negative control)
[17] = molecular target: HIV-1 JR-CSF Env N276A (HIV-1 JR-CSF) (UniProt P20871)
[18] = molecular target: HIV-1 JR-CSF Env R350A (HIV-1 isolate JR-CSF) (UniProt P20871)
[19] = molecular target: HIV-1 JR-CSF Env T388A (HIV-1 (isolate JR-CSF)) (UniProt P20871)
[20] = molecular target: HIV-1 JR-CSF Env T320A (HIV-1 isolate JR-CSF) (UniProt P20871)
[21] = molecular target: HIV-1 JR-CSF Env S306A (HIV-1 JR-CSF) (UniProt P20871)
[22] = molecular target: HIV-1 JR-CSF Env N339A (HIV-1 isolate JR-CSF) (UniProt P20871)
[23] = molecular target: HIV-1 JR-CSF Env K421A (HIV-1 (isolate JR-CSF)) (UniProt P20871)
[24] = molecular target: HIV-1 JR-CSF Env T202A (HIV-1 JR-CSF) (UniProt P20871)
[25] = molecular target: HIV-1 JR-CSF Env Q337A (HIV-1 isolate JR-CSF) (UniProt P20871)
[26] = molecular target: HIV-1 JR-CSF Env N411A (HIV-1 (isolate JR-CSF)) (UniProt P20871)
[27] = molecular target: HIV-1 JR-CSF Env K343A (HIV-1 isolate JR-CSF) (UniProt P20871)
[28] = molecular target: HIV-1 JR-CSF Env T413A (HIV-1 (isolate JR-CSF)) (UniProt P20871)
[29] = molecular target: HIV-1 JR-CSF Env N355A (HIV-1 isolate JR-CSF) (UniProt P20871)
[30] = molecular target: HIV-1 APV13 envelope glycoprotein (Env) (HIV-1)
[31] = molecular target: HIV-1 JR-CSF Env I424A (HIV-1 (isolate JR-CSF)) (UniProt P20871)
[32] = molecular target: HIV-1 JR-CSF Env T341A (HIV-1 isolate JR-CSF) (UniProt P20871)
[33] = molecular target: HIV-1 JR-CSF Env Q422A (HIV-1 (isolate JR-CSF)) (UniProt P20871)
[34] = molecular target: HIV-1 JR-CSF Env F317A (HIV-1 isolate JR-CSF) (UniProt P20871)
[35] = molecular target: HIV-1 JR-CSF Env E321aA (HIV-1 isolate JR-CSF) (UniProt P20871)
[36] = molecular target: HIV-1 JR-CSF Env T303A (HIV-1 JR-CSF) (UniProt P20871)
[37] = molecular target: HIV-1 JR-CSF Env I309A (HIV-1 JR-CSF) (UniProt P20871)
[38] = molecular target: HIV-1 JR-CSF Env I323A (HIV-1 isolate JR-CSF) (UniProt P20871)
[39] = molecular target: HIV-1 Env of isolate MGRM-D-029 (HIV-1)

Work on 1496_C09 (PG9) (TCN-109) (antibody) yielded an IC50, pseudovirus neutralization [1] of 0.181 µg/mL, an IC50 (µg/mL), single-round pseudovirus neutralization [2] of 0.019 µg/mL and an IC50, pseudovirus neutralization [3] of 8.78 µg/mL. For the same substance, the IC50, pseudovirus neutralization [4] was 3.44 µg/mL, the IC50, pseudovirus neutralization [5] was 0.688 µg/mL and the IC50 [6] was 0.164 µg/mL. The IC50, pseudovirus neutralization [7] was 0.216 µg/mL, the IC50 (µg/mL), pseudovirus neutralization [8] was 0.222 µg/mL and the IC50 (µg/mL), pseudovirus neutralization [9] was 0.06 µg/mL. For the same substance, the IC50 [10] was 0.258 µg/mL and the IC50, pseudovirus neutralization [11] was 8.12 µg/mL.
For 4838_L06 (PGT-121) (antibody), the neutralization IC80 [12] was 8.85 µg/mL, the neutralization IC80 [13] was 0.0231 µg/mL and the neutralization IC90 [13] was 0.0414 µg/mL. For the same substance, the neutralization IC95 [13] was 0.0715 µg/mL, the neutralization IC80 [14] was 0.371 µg/mL and the neutralization IC90 [14] was 0.799 µg/mL. The neutralization IC95 [14] was 1.55 µg/mL, the neutralization IC90 [15] was 0.369 µg/mL and the neutralization IC95 [15] was 0.74 µg/mL.
4858_P08 (PGT-123) (antibody) showed an IC50, pseudovirus neutralization [16] of over 10 µg/mL, an IC80, pseudovirus neutralization [16] of over 10 µg/mL and an IC90 (pseudovirus neutralization) [16] of over 10 µg/mL. The IC95, pseudovirus neutralization [16] was over 10 µg/mL.
In the case of 5123_A06 (PGT-125) (antibody), the neutralization IC50 [16] is reported as over 10 µg/mL, the neutralization IC80 [16] is reported as over 10 µg/mL and the neutralization IC90 [16] is reported as over 10 µg/mL. The neutralization IC95 [16] was over 10 µg/mL.
In the case of 5141_B17 (PGT-126) (antibody), the IC50 [12] is reported as 0.0091 µg/mL, the IC80 [12] is reported as 0.0316 µg/mL and the IC90 [12] is reported as 0.0655 µg/mL. For the same substance, the IC95 [12] was 0.128 µg/mL, the IC50 [13] was 0.0093 µg/mL and the IC80 [13] was 0.0391 µg/mL. It also gave an IC90 [13] of 0.0918 µg/mL, an IC95 [13] of 0.205 µg/mL and an IC50 [14] of 0.501 µg/mL. The IC80 [14] was 4.43 µg/mL, the IC90 [14] was over 10 µg/mL and the IC95 [14] was over 10 µg/mL. The IC50 [15] was 0.0256 µg/mL, the IC80 [15] was 0.102 µg/mL and the IC90 [15] was 0.238 µg/mL. It also gave an IC95 [15] of 0.577 µg/mL.
PGT-121 (antibody) was tested, and the Fold IC50 increase relative to wild-type [17] was 0.8 fold, the Fold IC50 increase relative to wild-type [18] was 0.8 fold and the Fold IC50 increase relative to wild-type [19] was 0.9 fold. For the same substance, the Fold IC50 increase relative to wild-type [20] was 1.2 fold, the Fold IC50 increase relative to wild-type [21] was 0.7 fold and the Fold IC50 increase relative to wild-type [22] was 0.5 fold. For the same substance, the Fold IC50 increase relative to wild-type [23] was 1.3 fold, the Fold IC50 increase relative to wild-type [24] was 1.2 fold and the Fold IC50 increase relative to wild-type [25] was 1 fold. For the same substance, the Fold IC50 increase relative to wild-type [26] was 0.4 fold, the Fold IC50 increase relative to wild-type [27] was 0.6 fold and the Fold IC50 increase relative to wild-type [28] was 0.5 fold. The Fold IC50 increase relative to wild-type [29] was 1.4 fold, the IC50 neutralization [30] was 0.316 µg/mL and the Fold IC50 increase relative to wild-type [31] was 0.9 fold. The Fold IC50 increase relative to wild-type [32] was 0.5 fold, the Fold IC50 increase relative to wild-type [33] was 1.2 fold and the Fold IC50 increase relative to wild-type [34] was 1.7 fold. It also gave a Fold IC50 increase relative to wild-type [35] of 0.3 fold, a Fold IC50 increase relative to wild-type [36] of 0.7 fold and a Fold IC50 increase relative to wild-type [37] of 1.1 fold. It also gave a Fold IC50 increase relative to wild-type [38] of 1.9 fold.
In the case of PGT-122 (antibody), the Fold IC50 increase relative to wild-type [17] is reported as 1.4 fold, the Fold IC50 increase relative to wild-type [18] is reported as 0.6 fold and the Fold IC50 increase relative to wild-type [19] is reported as 0.3 fold. It also gave a Fold IC50 increase relative to wild-type [20] of 0.7 fold, a Fold IC50 increase relative to wild-type [21] of 0.5 fold and a Fold IC50 increase relative to wild-type [22] of 0.4 fold. It also gave a Fold IC50 increase relative to wild-type [23] of 1.2 fold, a Fold IC50 increase relative to wild-type [24] of 1.5 fold and a Fold IC50 increase relative to wild-type [25] of 0.5 fold. The Fold IC50 increase relative to wild-type [26] was 0.7 fold, the Fold IC50 increase relative to wild-type [27] was 0.3 fold and the Fold IC50 increase relative to wild-type [28] was 0.8 fold. The Fold IC50 increase relative to wild-type [29] was 0.8 fold, the IC50 neutralization [30] was 0.992 µg/mL and the Fold IC50 increase relative to wild-type [31] was 0.8 fold. The Fold IC50 increase relative to wild-type [32] was 0.3 fold, the Fold IC50 increase relative to wild-type [33] was 1.1 fold and the Fold IC50 increase relative to wild-type [34] was 3.4 fold. For the same substance, the Fold IC50 increase relative to wild-type [35] was 0.4 fold, the Fold IC50 increase relative to wild-type [36] was 2.5 fold and the Fold IC50 increase relative to wild-type [37] was 2.1 fold. It also gave a Fold IC50 increase relative to wild-type [38] of 2.2 fold.
PGV04 (antibody) was tested, and the IC50, pseudovirus neutralization [1] was 24.2 µg/mL, the IC50 (µg/mL), single-round pseudovirus neutralization [2] was 0.027 µg/mL and the IC50, pseudovirus neutralization [3] was 0.166 µg/mL. For the same substance, the IC50, pseudovirus neutralization [4] was 0.142 µg/mL, the IC50, pseudovirus neutralization [5] was 0.129 µg/mL and the IC50 [6] was 0.14 µg/mL. For the same substance, the IC50, pseudovirus neutralization [7] was 0.164 µg/mL, the IC50 (µg/mL), pseudovirus neutralization [8] was 2.52 µg/mL and the IC50 (µg/mL), pseudovirus neutralization [9] was 0.303 µg/mL. For the same substance, the IC50 (µg/mL), pseudovirus neutralization [39] was 1.56 µg/mL, the IC50 [10] was 0.31 µg/mL and the IC50, pseudovirus neutralization [11] was 0.255 µg/mL.
Substance VRC01 (antibody) has an IC50, pseudovirus neutralization [39] of 3.22 µg/mL.
